Source: US11325966

Tests used:
Assay in all cases: cell-based or functional assay
[1] = target: HIV-1 envelope (Env) of pseudovirus 1012_11_TC21_3257 (HIV-1)
[2] = target: HIV-1 envelope (Env) of pseudovirus 249M B10 (HIV-1)
[3] = target: HIV-1 envelope (Env) of pseudovirus 6545.v4.c1 (HIV-1)
[4] = target: HIV-1 envelope (Env) of pseudovirus BJOX009000.02.4 (HIV-1)
[5] = target: HIV-1 envelope (Env) of pseudovirus THRO4156.18 (HIV-1)
[6] = target: HIV-1 envelope (Env) of pseudovirus ZM214M.PL15 (HIV-1)

BG1 (antibody)
> 30 µg/mL: IC50 in TZM-bl assay [1] | IC80 in TZM-bl assay [1] | IC50 in TZM-bl assay [3] | IC80 in TZM-bl assay [3] | IC50 in TZM-bl assay [4] | IC80 in TZM-bl assay [4] | IC50 in TZM-bl assay [5] | IC80 in TZM-bl assay [5] | IC50 in TZM-bl assay [6] | IC80 in TZM-bl assay [6]
1.47 µg/mL: IC50 in TZM-bl assay [2]
5.45 µg/mL: IC80 in TZM-bl assay [2]
